# T1: GST-SV343-571 (bovine, UniProt O46385-2 343-571)
# T1 sequence (looked up): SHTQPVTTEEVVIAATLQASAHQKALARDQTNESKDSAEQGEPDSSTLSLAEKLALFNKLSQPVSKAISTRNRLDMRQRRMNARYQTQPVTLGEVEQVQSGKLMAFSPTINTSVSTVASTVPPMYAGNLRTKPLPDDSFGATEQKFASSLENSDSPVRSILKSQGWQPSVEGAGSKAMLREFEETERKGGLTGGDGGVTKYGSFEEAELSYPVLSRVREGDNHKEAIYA
# B1: 6×His-tagged TRIP6 LIM domains (aa 265-476) (domain or fragment, human (HeLa cell cDNA library), UniProt Q15654-1 265-476, looked up)
# chain: HDMNHPPSGEYFGQCGGCGEDVVGDGAGVVALDRVFHVGCFVCSTCRAQLRGQHFYAVERRAYCEGCYVATLEKCATCSQPILDRILRAMGKAYHPGCFTCVVCHRGLDGIPFTVDATSQIHCIEDFHRKFAPRCSVCGGAIMPEPGQEETVRIVALDRSFHIGCYKCEECGLLLSSEGECQGCYPLDGHILCKACSAWRIQELSATVTTDC
# Target: T1, GST-SV343-571
# Test: pull-down
binder,measurement,value
B1,binding result,binds
